Measured values published in patent US20090074766A1, “Methods of inhibiting HIV-2 infection” (priority 2007, published 2009).
Where “and” joins values, the source holds several entries; their conditions need not be identical. Identical values can stand only once. Entries after “also recorded” stand apart in the source; their conditions may differ. Like-named read-outs stand apart in the source and are kept apart here.

Assays:
[1] = system: R5 HIV-1 CC 1/85; experiment: Inhibition of replication in PBMC cultures, RT activity readout: HIV-1 CC 1/85; type: cell-based
Protocol: (§1) Viruses: All virus isolates were grown and titered exclusively in stimulated PBMC as described previously. […] The HIV-2 isolates used in this study have been previously described (Owen, S. M., Ellenberger, D., Rayfield, M., Wiktor, S., Michel, P., Grieco, M. H., Gao, F., Hahn, B. H., and Lai, R. B. 1998. Genetically Divergent Strains of Human Immunodeficiency Virus Type 2 Use Multiple Coreceptors for Entry. J Virol 72:5425-5432) and were obtained from the NIH AIDS Research and Reference Reagent Program.
(§2) PA14 (Lot # DF-021204) was produced for reagent use in the Research & Development laboratories of Progenics Pharmaceuticals Inc.
(§3) Inhibition of HIV-1 and HIV-2 replication in PBMC cultures: PBMC were isolated from 34 healthy blood donors with Ficoll-Hypaque (all media from Cellgro, Herndon, Va.) and depleted of CD8+ cells using RosetteSep CD8 depletion cocktail (StemCell Technologies) according to the manufacturer's instructions. Equal numbers of cells from each donor were then separately stimulated with 5 ug phytohemagglutinin/ml (Sigma, St. Louis, Mo.) or with surface-immobilized anti-CD3 antibody OKT3 in RPMI 1640 medium containing 10% fetal calf serum, 100 Units of interleukin-2/ml (NIH AIDS Research and Reference Reagent Program), glutamine, and antibiotics (PBMC culture medium) as previously described. After 72 hours, equal numbers of PBMC stimulated by one of these two methods from each donor were combined for use in infection assays as follows. […] The virus inoculum was adjusted to 400 to 2,000 times the TCID50 per ml in PBMC culture medium, and a 50-ul aliquot was added to each culture. The inhibitory doses refer to the concentrations of the agents present at this point in the culture, when virus, cells, and inhibitors were all present at their final concentrations. Reverse Transcriptase (RT) activity was measured on Day 7 post infection (pi) for HIV-1 and Day 10 pi for HIV-2 by the Reverse Transcriptase Assay, Colorimetric kit, #11 468 120 910, Roche (Switzerland) according to the manufacturer's instructions with the following exception: neither ultracentrifugation nor PEG precipitation of the culture supernatants was performed before viral lysis.
(§4) The inhibition data were analyzed using GraphPad Prism software (GraphPad Software, San Diego, Calif.). A 4-parameter logistic fit was used calculate the concentration of inhibitor that afforded a 50% and a 90% reduction in RT activity. […] The % inhibitions where best-fit curve reached a top plateau, also as calculated by GraphPad Prism software, are reported as well as maximum percent inhibition (MPI). […] Inhibition curves with a poor sigmoid fit (R^2<0.7) were excluded from data analysis.

[2] = system: R5 HIV-2 A2267; experiment: Inhibition of replication in PBMC cultures, RT activity readout: HIV-2 A2267; type: cell-based
Protocol: as §1, §2, §3, §4

[3] = system: R5 HIV-2 SLRHC; experiment: Inhibition of replication in PBMC cultures, RT activity readout: HIV-2 SLRHC; type: cell-based
Protocol: as §1, §2, §3, §4

[4] = system: R5X4 HIV-2 77618; experiment: Inhibition of replication in PBMC cultures, RT activity readout: HIV-2 77618; type: cell-based
Protocol: as §1, §2, §3, §4

[5] = system: R5X4 HIV-2 isolates; experiment: Inhibition of replication in PBMC cultures, RT activity readout: two R5X4 HIV-2 isolates; type: cell-based; settings: result in words
Protocol: Two well-characterized R5 HIV-1 isolates were included for comparative purposes.
as §1
Inhibition of HIV-1 and HIV-2 replication in PBMC cultures: PBMC were isolated from 34 healthy blood donors with Ficoll-Hypaque (all media from Cellgro, Herndon, Va.) and depleted of CD8+ cells using RosetteSep CD8 depletion cocktail (StemCell Technologies) according to the manufacturer's instructions. […] Reverse Transcriptase (RT) activity was measured on Day 7 post infection (pi) for HIV-1 and Day 10 pi for HIV-2 by the Reverse Transcriptase Assay, Colorimetric kit, #11 468 120 910, Roche (Switzerland) according to the manufacturer's instructions with the following exception: neither ultracentrifugation nor PEG precipitation of the culture supernatants was performed before viral lysis.
The inhibition data were analyzed using GraphPad Prism software (GraphPad Software, San Diego, Calif.). […]

[6] = human, in vivo
Protocol: Sera were diluted as appropriate and combined with L1.2-CCR5 cells, which are mouse pre-B lymphoma cells engineered to stably express human CCR5. […] Following incubation with test samples, cells were washed and combined with a FITC-labeled sheep antibody against human IgG4 (The Binding Site Limited, Cat. #AF009). Cells were washed again and analyzed by flow cytometry.
Serum was collected post-treatment, cryopreserved, and analyzed for PRO 140 levels. Peak serum concentrations ranged to […] at 0.1 mg/kg and […] at 0.5 mg/kg.

[7] = system: CCR5 lymphocytes; type: in vivo, human
Protocol: Whole blood specimens were combined separately with the indicated phycoerythrin-labeled anti-CCR5 antibodies or with appropriate isotype-control antibodies. Erythocytes were lysed and leukocytes were stabilized using the ImmunoPrep Reagent System (Beckman Coulter), and the cells were analyzed on a TQ Prep™ flow cytometry workstation (Beckman Coulter). Data were expressed as the percent of CCR5 cells relative to all cells gated in the analysis.
For up to 60 days post-treatment, at the times indicated in FIG. 6, blood was collected and analyzed for CCR5 lymphocyte levels.
Background binding of isotype control antibodies was unchanged.

[8] = system: viruses in PRO 140-treated subjects; experiment: Phase 1b: virus susceptibility of subjects' viruses (PhenoSense Assay); type: cell-based, HIV-1
Source text: A non-limiting example of a widely used phenotypic HIV drug resistance test is the PhenoSense™ HIV assay, which measures the sensitivity of a virus to antiretroviral drugs.

[9] = system: HIV-1; settings: Olson et al., 1999; Trkola et al., 2001; cited from earlier work
[10] = system: HIV-1; settings: Table 2 comparison; cited from earlier work
[11] = system: CCR5 lymphocytes; experiment: Phase 1b clinical trial: coating of CCR5 lymphocytes (flow cytometry ex vivo)
[12] = CC 1/85, current study n = 5, mean

B1: PRO 140: humanized IgG4,κ anti-CCR5 monoclonal antibody, humanized version of murine mAb PA14 (antibody, chains of the INN, looked up, V domains shown)
VH: EVQLVESGGGLVKPGGSLRLSCAASGYTFSNYWIGWVRQAPGKGLEWIGDIYPGGNYIRNNEKFKDKTTLSADTSKNTAYLQMNSLKTEDTAVYYCGSSFGSNYVFAWFTYWGQGTLVTVSS
VL: DIVMTQSPLSLPVTPGEPASISCRSSQRLLSSYGHTYLHWYLQKPGQSPQLLIYEVSNRFSGVPDRFSGSGSGTDFTLKISRVEAEDVGVYYCSQSTHVPLTFGQGTKVEIK
- EC50 (mean) [1, 12]: <7.7 µg/mL
- EC90 (mean) [1, 12]: 23 µg/mL
- EC90 (median) ([1]; HIV-1 CC 1/85, R5, median, current study n = 5): 6.0 µg/mL
- MPI (maximum percent inhibition) ([1]; R5 HIV-1 CC 1/85, individual assays (Source)): 94% and 93% and 102% and 95%
- MPI, Median ([1]; R5 HIV-1 CC 1/85, median of assays): 95%
- EC50 (median) ([2]; HIV-2 A2267, R5): 0.10 µg/mL
- EC90 (median) ([2]; HIV-2 A2267, R5): 98 µg/mL
- MPI (maximum percent inhibition) ([2]; R5 HIV-2 A2267, individual assays (Source)): 97% and 115% and 88% and 94% and 75%
- MPI, Median ([2]; R5 HIV-2 A2267, median of assays with R^2 >= 0.7): 94%
- EC50 (median) ([3]; HIV-2 SLRHC, R5): 0.57 µg/mL
- EC90 (median) ([3]; HIV-2 SLRHC, R5): 21 µg/mL
- MPI (maximum percent inhibition) ([3]; R5 HIV-2 SLRHC, individual assays (Source)): 104% and 135% and 127% and 150%
- MPI, Median ([3]; R5 HIV-2 SLRHC, median of assays): 135%
- EC50 (median) ([4]; HIV-2 77618, R5X4): >100 µg/mL
- EC90 (median) ([4]; HIV-2 77618, R5X4): >100 µg/mL
- MPI: Maximum percent inhibition as determined from the plateau of the sigmoidal curve fit ([4]; Virus: R5X4 HIV-2 77618, individual experiments (Source)): 6% and −2%
- MPI, Median ([4]; Virus: R5X4 HIV-2 77618, median of experiments): 2%
- effect on replication of R5X4 HIV-2 isolates [5]: did not measurably inhibit replication; also recorded: Neither PRO 140 nor PA14 had any measurable effect on replication
- terminal serum half-life [6]: 240 to 288 h
- time cells remain partially coated ([7]; single 2 mg/kg dose): > 4 weeks
- time cells remain partially coated ([7]; single 5 mg/kg dose): > 60 days
- change in rIC50 post-treatment ([8]; all subjects): Less than 2 fold
- Mean Maximum Percent Inhibition (MPI) ([8]; baseline): 99% (range: 93-100%)
- Mean rIC50 ([8]; baseline): 2.0 (range: 0.83-5.1)
- Mean MPI ([8]; post-treatment): 99% (range: 93-100%)
- Mean rIC50 ([8]; post-treatment): 2.1 (range: 0.98-4.71)
- IC90 [9]: about 4 μg/ml
- Development of Resistance In Vitro [10]: None at 40 weeks
- depletion of CCR5+ lymphocytes [11]: No depletion of CCR5+ lymphocytes
